Values of other authors in article PMC10775509.
Read-outs that look alike come from different tables or passages of the source.

Columns and labels:
TREM-1 (Mus musculus) [1] = biological target: TREM-1 (Mus musculus) (UniProt Q9JKE2)
TREM-1 (Mus musculus) [2] = biological target: TREM-1 (Mus musculus) (UniProt Q9JKE2); remark: listed apart in the source

Sequence of UniProt Q9JKE2 (Q9JKE2 21-230): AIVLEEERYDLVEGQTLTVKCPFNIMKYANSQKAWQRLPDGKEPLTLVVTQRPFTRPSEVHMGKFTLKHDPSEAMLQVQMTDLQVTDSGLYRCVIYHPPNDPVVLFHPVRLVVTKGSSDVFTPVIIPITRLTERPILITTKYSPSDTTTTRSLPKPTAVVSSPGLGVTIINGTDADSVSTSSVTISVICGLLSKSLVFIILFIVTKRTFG

| Substance | Kd (TREM-1 (Mus musculus) [1]) | Kd (TREM-1 (Mus musculus) [2]) |
| --- | --- | --- |
| CIRP (from UniProt P60824) | 0.117 µM | – |
| HMGB1 (from UniProt P63158) | – | 35.4 µM |
